Test results reported in article PMC11178655, “Dosimetry and pharmacokinetics of [^177Lu]Lu-satoreotide tetraxetan in patients with progressive neuroendocrine tumours” (European Journal of Nuclear Medicine and Molecular Imaging, 2024).
Where a SMILES comes first, the peptide text is derived from it. Bridges are numbered along the chain shown (N, C = ends). [ ]: non-standard residue; d: D form. The star is where a group is joined. DOTA = O=C(O)CN1CCN(CC(=O)O)CCN(CC(=O)*)CCN(CC(=O)O)CC1; dPhe(4-NHCONH2) = NC(=O)Nc1ccc(C[C@@H](N)C(=O)O)cc1; Dihydroorotyl(S) = O=C1C[C@@H](C(=O)*)NC(=O)N1; Phe(4-Cl) = N[C@@H](Cc1ccc(Cl)cc1)C(=O)O; Phe(4-NH2) = Nc1ccc(C[C@H](N)C(=O)O)cc1

Tested on: patients with progressive, SSTR-positive NETs
Assay: Patient-specific image-based dosimetry (NUKDOS) of tumours and organs, phase I/II trial
Type: in vivo, human
Conditions: median (range)
Method: In both parts A and B of the study, patients underwent planar whole-body imaging at 4 h and 1, 2, 3, and 6 days after each [^177Lu]Lu-satoreotide tetraxetan treatment cycle. Patients in part A also underwent single-photon emission computed tomography/computed tomography (SPECT/CT) at 24 h after each [^177Lu]Lu-satoreotide tetraxetan cycle. Those in part B underwent SPECT/CT, immediately before or after planar scintigraphy, at 4 h, and 1, 2, 3, and 6 days after each [^177Lu]Lu-satoreotide tetraxetan administration. Full details of the image acquisition methodology are provided in the Supplementary Information.
Delineation of tumour volumes was performed on anatomical SPECT/CT images after each [^177Lu]Lu-satoreotide tetraxetan administration. Tumours with a longest diameter < 2 cm were not analysed due to the difficulty in correcting for partial volume effects caused by the limited spatial resolution of the SPECT/CT systems. For study inclusion in part A, one tumour lesion ≥ 2 cm must have been present for eligibility; in part B, two or more tumour lesions ≥ 2 cm must have been present, each with an uptake on SSTR imaging higher than that of normal liver parenchyma (target lesion on [^68Ga]Ga-DOTA-TATE or -DOTA-TOC positron emission tomography: maximum standardised uptake value [SUVmax] ≥ 2x the mean SUV [SUVmean] of liver background; or ^111In-scintigraphy/SPECT: Krenning score 3 or 4 [uptake > normal liver, or uptake > spleen or kidneys, respectively [26]]).
Reconstruction parameters were set up to produce isotropic voxels of < 5 mm; voxels were continuous throughout the field of view. Anatomic coverage of the acquisition was determined according to the patients’ tumour locations on the planar whole-body scan acquisition with liver, both kidneys and spleen in the same bed position. For organs showing [^177Lu]Lu-satoreotide tetraxetan uptake, regions of interest (ROIs)/volumes of interest (VOIs) were drawn manually over the whole organs of interest (whole body, left and right kidneys, liver, spleen, and bone marrow), using the NUKDOS software for planar whole-body scans and the SPECT/CT acquired in part A [27]. VOIs for the same organs were drawn for all SPECT/CT images acquired in part B. All ROIs/VOIs were then used for activity quantification. Time-integrated activity coefficients (TIACs) for a given source volume were computed by integrating the time-activity curves. Full details of the tumour delineation and activity quantification methodology are provided in the Supplementary Information.
Patient-specific dosimetry calculations were performed after each treatment cycle in both parts A and B, using the absorbed dose calculation features of the NUKDOS software for image-based dosimetry calculations. The NUKDOS software was chosen as it allowed for an integral approach to organ dosimetry (including image quantification, time-activity curve-fitting and dosimetry calculation). For the bone marrow, both image-based and blood-based calculations were performed in part A [28, 29]. In part B, only image-based bone marrow dosimetry was performed. Organ Level INternal Dose Assessment/EXponential Modelling (OLINDA/EXM) version 1.0 software, the most widely used version at the time of the study, was used to perform model-based dosimetry calculations, which were only performed after the first [^177Lu]Lu-satoreotide tetraxetan cycle for patients in part B. To generate organ-specific absorbed doses, TIACs were used as input data. Full details on OLINDA/EXM software settings and organ-specific TIAC calculation methods are provided in the Supplementary Information.
All images were acquired with a 20% energy window around the main photopeak of ^177Lu (208 keV). For scatter correction, the triple-energy window method was applied based on the recommendation of the Committee on Medical Internal Radiation Dose. Whole-body images were acquired with a scanning time of 20 cm/min in a 256 × 1,024 matrix. […]

[1] = Part A (4.5 GBq, 300 µg), image-based dosimetry, n = 11
[2] = Part A (4.5 GBq, 300 µg), n = 7
[3] = Part A (4.5 GBq, 300 µg), n = 9
[4] = Part A (4.5 GBq, 300 µg), n = 11
[5] = Part A (4.5 GBq/cycle), image-based dosimetry, n = 10
[6] = Part A (4.5 GBq/cycle), n/n-les 9/16
[7] = Part A and B, image-based dosimetry, n = 21
[8] = Part B Cohort 1 (6.0 GBq, reduced to 4.5 GBq after three patients; 300 µg), n = 6
[9] = Part B Cohort 1, image-based dosimetry, n = 1
[10] = Part B Cohort 3 (4.5 GBq, 300 µg), n = 9

C[C@@H](O)[C@@H]1NC(=O)[C@H](CCCCN)NC(=O)[C@@H](Cc2ccc(NC(N)=O)cc2)NC(=O)[C@H](Cc2ccc(NC(=O)[C@@H]3CC(=O)NC(=O)N3)cc2)NC(=O)[C@H](NC(=O)[C@H](Cc2ccc(Cl)cc2)NC(=O)CN2CCN(CC(=O)O)CCN(CC(=O)O)CCN(CC(=O)O)CC2)CSSC[C@@H](C(=O)N[C@H](Cc2ccc(O)cc2)C(N)=O)NC1=O [[^177Lu]Lu-satoreotide tetraxetan, metal not drawn] ({DOTA}-[Phe(4-Cl)][dC][Phe(4-NH2)](Dihydroorotyl(S))[dPhe(4-NHCONH2)]KTC[dY]-NH2; disulfide 2-7 (inferred); C-terminus assumed)
Cycle 1 ADC, Bone marrow [1]: 0.1 (0.0–0.2) Gy/GBq
Cycle 3 ADC, Bone marrow [1]: 0.1 (0.0–0.2) Gy/GBq
Cycle 1 ADC, Liver [2]: 0.2 (0.1–0.3) Gy/GBq
Cycle 3 ADC, Liver [2]: 0.2 (0.1–0.4) Gy/GBq
Cycle 1 ADC, Spleen [3]: 0.8 (0.2–1.8) Gy/GBq
Cycle 3 ADC, Spleen [3]: 0.5 (0.3–1.0) Gy/GBq
Cycle 1 ADC, Kidneys [4]: 1.1 (0.5–1.9) Gy/GBq
Cycle 1 ADC, Tumours [4]: 2.6 (0.4–14.3) Gy/GBq
Cycle 3 ADC, Kidneys [4]: 1.0 (0.7–1.8) Gy/GBq
Cycle 3 ADC, Tumours [4]: 1.7 (0.3–5.0) Gy/GBq
Ratio of ADCs Cycle 2/Cycle 1 (300 vs. 300 µg), Bone marrow [5]: 89.5 (54.7–152) %
Ratio of ADCs Cycle2/Cycle 3 (300 vs. 300 µg), Bone marrow [5]: 109 (23.9–297) %
Ratio of ADCs Cycle 2/Cycle 1 (300 vs. 300 µg), Spleen (Part A (4.5 GBq/cycle), n = 9): 93.0 (50.0–270) %
Ratio of ADCs Cycle2/Cycle 3 (300 vs. 300 µg), Spleen (Part A (4.5 GBq/cycle), n = 9): 127 (81.1–334) %
Ratio of ADCs Cycle 2/Cycle 1 (300 vs. 300 µg), Body (Part A (4.5 GBq/cycle), n = 11): 108 (38.3–142) %
Ratio of ADCs Cycle 2/Cycle 1 (300 vs. 300 µg), Kidney (Part A (4.5 GBq/cycle), n = 11): 116 (55.8–140) %
Ratio of ADCs Cycle2/Cycle 3 (300 vs. 300 µg), Body (Part A (4.5 GBq/cycle), n = 11): 95.4 (69.5–119) %
Ratio of ADCs Cycle2/Cycle 3 (300 vs. 300 µg), Kidney (Part A (4.5 GBq/cycle), n = 11): 101 (80.6–179) %
Ratio of ADCs Cycle 2/Cycle 1 (300 vs. 300 µg), Liver lesions [6]: 91.8 (28.6–156) %
Ratio of ADCs Cycle2/Cycle 3 (300 vs. 300 µg), Liver lesions [6]: 127 (73.3–343) %
Ratio of ADCs Cycle2/Cycle 3 (300 vs. 300 µg), All lesions (Part A (4.5 GBq/cycle), n/n-les 11/23): 125 (73.3–343) %
Ratio of ADCs Cycle 2/Cycle 1 (300 vs. 300 µg), All lesions (Part A (4.5 GBq/cycle), n/n-les 11/24): 83.4 (28.6–156) %
Cycle 3 ADC, Bone marrow [7]: 0.1 (0.0–0.2) Gy/GBq
Ratio of Cycle 3/ Cycle 1 ADCs, Bone marrow [7]: 105 (22.4–400) %
Cycle 1 ADC, Bone marrow (Part A and B, image-based dosimetry, n = 29): 0.1 (0.0–0.6) Gy/GBq
Ratio of Cycle 3/ Cycle 1 ADCs, Liver (Part A and B, n = 7): 88.5 (43.8–132) %
Ratio of Cycle 3/ Cycle 1 ADCs, Spleen (Part A and B, n = 18): 83.2 (40.9–231) %
Ratio of Cycle 3/ Cycle 1 ADCs, Tumours (Part A and B, n = 23): 78.6 (16.0–195) %
Ratio of Cycle 3/ Cycle 1 ADCs, Kidneys (Part A and B, n = 25): 98.6 (59.1–198) %
Cycle 3 ADC, Liver (Part A and B, patient-specific dosimetry, n = 7): 0.2 (0.1–0.4) Gy/GBq
Cycle 1 ADC, Liver (Part A and B, patient-specific dosimetry, n = 8): 0.2 (0.1–0.3) Gy/GBq
Cycle 3 ADC, Spleen (Part A and B, patient-specific dosimetry, n = 19): 0.7 (0.3–1.5) Gy/GBq
Cycle 3 ADC, Tumours (Part A and B, patient-specific dosimetry, n = 24): 4.0 (0.3–70.3) Gy/GBq
Cycle 3 ADC, Kidneys (Part A and B, patient-specific dosimetry, n = 26): 0.8 (0.4–1.8) Gy/GBq
Cycle 1 ADC, Spleen (Part A and B, patient-specific dosimetry, n = 27): 0.8 (0.2–1.8) Gy/GBq
Cycle 1 ADC, Tumours (Part A and B, patient-specific dosimetry, n = 33): 5.0 (0.4–83.3) Gy/GBq
Cycle 1 ADC, Kidneys (Part A and B, patient-specific dosimetry, n = 35): 0.9 (0.4–1.9) Gy/GBq
Ratio of Cycle 3/ Cycle 1 ADCs, Bone marrow (Part A, image-based dosimetry, n = 11): 101 (22.4–302) %
Ratio of Cycle 3/ Cycle 1 ADCs, Liver (Part A, n = 7): 88.5 (43.8–132) %
Ratio of Cycle 3/ Cycle 1 ADCs, Spleen (Part A, n = 9): 61.5 (40.9–231) %
Ratio of Cycle 3/ Cycle 1 ADCs, Kidneys (Part A, n = 11): 106 (59.1–139) %
Ratio of Cycle 3/ Cycle 1 ADCs, Tumours (Part A, n = 11): 76.7 (16.0–195) %
Cycle 1 ADC, Bone marrow (Part B Cohort 1 (6.0 GBq, reduced to 4.5 GBq after three patients; 300 µg), image-based dosimetry, n = 6): 0.1 (0.1–0.6) Gy/GBq
Cycle 1 ADC, Liver (Part B Cohort 1 (6.0 GBq, reduced to 4.5 GBq after three patients; 300 µg), n = 1): 0.2 (0.2–0.2) Gy/GBq
Cycle 1 ADC, Tumours (Part B Cohort 1 (6.0 GBq, reduced to 4.5 GBq after three patients; 300 µg), n = 5): 3.9 (1.9–83.3) Gy/GBq
Cycle 1 ADC, Kidneys [8]: 0.7 (0.6–1.0) Gy/GBq
Cycle 1 ADC, Spleen [8]: 1.0 (0.5–1.1) Gy/GBq
Cycle 3 ADC, Bone marrow [9]: 0.1 (0.1–0.1) Gy/GBq
Ratio of Cycle 3/ Cycle 1 ADCs, Bone marrow [9]: 64.3 (64.3–64.3) %
Cycle 3 ADC, Kidneys (Part B Cohort 1, n = 1): 0.7 (0.7–0.7) Gy/GBq
Cycle 3 ADC, Spleen (Part B Cohort 1, n = 1): 0.5 (0.5–0.5) Gy/GBq
Ratio of Cycle 3/ Cycle 1 ADCs, Kidneys (Part B Cohort 1, n = 1): 111 (111–111) %
Ratio of Cycle 3/ Cycle 1 ADCs, Spleen (Part B Cohort 1, n = 1): 82.3 (82.3–82.3) %
Cycle 1 ADC, Bone marrow (Part B Cohort 3 (4.5 GBq, 300 µg), image-based dosimetry, n = 6): 0.1 (0.1–0.1) Gy/GBq
Cycle 1 ADC, Spleen (Part B Cohort 3 (4.5 GBq, 300 µg), n = 6): 1.0 (0.2–1.5) Gy/GBq
Cycle 1 ADC, Kidneys [10]: 0.9 (0.5–1.2) Gy/GBq
Cycle 1 ADC, Tumours [10]: 6.8 (2.1–28.2) Gy/GBq
Cycle 3 ADC, Bone marrow (Part B Cohort 3 (4.5 GBq, 300 µg; 700 µg at cycle 2), image-based dosimetry, n = 6): 0.1 (0.0–0.1) Gy/GBq
Cycle 3 ADC, Spleen (Part B Cohort 3 (4.5 GBq, 300 µg; 700 µg at cycle 2), n = 5): 0.8 (0.3–1.1) Gy/GBq
